Experimental data from PMC7105311, “Structure and function of Bs164 β-mannosidase from Bacteroides salyersiae the founding member of glycoside hydrolase family GH164” (The Journal of Biological Chemistry, 2019).

How the values were obtained:
[1] = substrate: O=[N+]([O-])c1ccc(O[C@@H]2O[C@H](CO)[C@@H](O)[C@H](O)[C@@H]2O)cc1; experiment: stopped assay, p-nitrophenol absorbance; type: biochemical, Bacteroides salyersiae; settings: 80 mM MES pH 5.5, 160 mM NaCl, 25 °C
Source text: stopped assay, p-nitrophenol absorbance on Bs164

purified protein = substrate: Cc1cc(=O)oc2cc(O[C@@H]3O[C@H](CO)[C@@H](O)[C@H](O)[C@@H]3O)ccc12; experiment: purified protein; type: biochemical, Bacteroides salyersiae; settings: 80 mM MES pH 5.5, 160 mM NaCl, 25 °C

B1: Bs164 (Bacteroides salyersiae CL02T12C01) (protein)
chain: ERISKQSTPFVGAQIFIEPGQTQEQIEQWFKLLAESNMTTCRIRMFGKYMKTPSGTYDFTLFDRAFKLADKYHIKVYATLFPDTEFTDVGGFKFPHSREHQKEVEDYIKNVVSHFSQYKNLAAWVLINEPGTPNLPFNEPFTKERFSDWKKEHNFSEYNEKGYPVLNFEKENFIIDYHNWYLNWLANQVRLYDKQHDLHVNPHNVFKLSGLYDFPTWRTFLNSLGGSAHASWHFGYFPRKAYTVAMSANAELIRSGAGELPWLMTELQGGNNLYSGANPLCPTAEEIIQWLWINFATEAKGGIFWSFNARSTAAEAGEWAMINFKNKSSDRLIAAATIGKFITENVKMMSNIKTLNSGISILYNHESMWVEAAQTRGKLNGNGRSIGAVMCSPLSYFEALSETGLQANFKEIKEFDFSLNDYTDQVIILSHQIALDNKVIKQLESFVEKGGTLIADGLTGYYDYQAHSTVVSGFALENLFGSYPIEYKIKENLFSLDFEKDNYKLPAHLWKGTIETSKATPIMDKEGECIACINQYGKGKVFWIPSPIALGARESKDFSELSKLTVSLLPNKILNDNPHFDKHYKDVMMKSFKSNGTMYSLIINKSASVQTVDIVGGKGKAFILFANKNAHSTANKLTISPEETVIIKWKNN
notes: tag cut by 3C protease for kinetics, His6-tagged for crystals
For B1, the Km [1] was 3600 ± 800 µM, the kcat [1] was 40 ± 3 s⁻¹ and the kcat/Km [1] was 11000 ± 3000 M⁻¹ s⁻¹. It also gave a Km (purified protein) of 1050 ± 80 µM, a kcat (purified protein) of 1.8 ± 0.05 s⁻¹ and a kcat/Km (purified protein) of 1700 ± 100 M⁻¹ s⁻¹.
